The target in assay [1] is T1, CCR4 (Homo sapiens, UniProt P51679).
T1 sequence (P51679 1-360): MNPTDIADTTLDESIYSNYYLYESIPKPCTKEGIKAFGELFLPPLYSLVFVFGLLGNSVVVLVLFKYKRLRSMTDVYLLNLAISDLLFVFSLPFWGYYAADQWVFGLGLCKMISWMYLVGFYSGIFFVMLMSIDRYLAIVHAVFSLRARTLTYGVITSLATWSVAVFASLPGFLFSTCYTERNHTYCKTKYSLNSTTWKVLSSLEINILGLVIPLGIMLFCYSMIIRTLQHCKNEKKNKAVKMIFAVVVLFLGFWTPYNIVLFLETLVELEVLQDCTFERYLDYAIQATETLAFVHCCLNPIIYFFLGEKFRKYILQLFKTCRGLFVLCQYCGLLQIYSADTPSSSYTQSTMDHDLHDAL
Nature of the assay: Arrestin agonist mode. The settings on record: read-out: RC50 (the source's name). The format is cell-based.

The nature of assay [2]: Food intake and meal pattern after central injection in rats. The format is in vivo, rat. To be noted: for food intake: 4th ventricle injection. As to the method:
Rats were exposed to kaolin for at least 5 days prior to measuring kaolin consumption in pica testing. Except for studies conducted in the BioDaq, for all feeding studies rats were housed in hanging wire cages to allow for accurate measurement of food spillage.
For cannula implantation, rats were anesthetized by intraperitoneal injection of a mixture containing ketamine (90 mg/kg, Butler Animal Health Supply), xylazine (2.7 mg/kg, Anased), and acepromazine (0.64 mg/kg, Butler Animal Health Supply) (KAX) and then placed into a stereotaxic apparatus. Each rat was stereotaxically implanted with a guide cannula (26-ga, Plastics One) aimed at the fourth ventricle (guide cannula coordinates: on midline, 2.5 mm anterior to occipital suture, 5.2 mm ventral to skull; internal cannula aimed 7.2 mm ventral to skull) or the lateral ventricle (guide cannula coordinates: 1.5 mm lateral to midline, 0.9 mm posterior to bregma, 1.8 mm ventral to skull; internal cannula aimed 3.8 mm ventral to skull). For all cannulas, dummies (no projection beyond guide) were inserted in the guide cannula and left until infusions were performed. For all surgeries, rats received post-operative temperature support and analgesia was provided immediately following surgery and for two post-operative days (2 mg/kg meloxicam).

Assay [3] in a line: 24 h body weight change in rats. Type of assay: in vivo, rat. The settings on record: 4th ventricle injection.
For assay [4], the target named is T2, CCR9 (Homo sapiens, UniProt P51686).
T2 sequence (P51686 1-369): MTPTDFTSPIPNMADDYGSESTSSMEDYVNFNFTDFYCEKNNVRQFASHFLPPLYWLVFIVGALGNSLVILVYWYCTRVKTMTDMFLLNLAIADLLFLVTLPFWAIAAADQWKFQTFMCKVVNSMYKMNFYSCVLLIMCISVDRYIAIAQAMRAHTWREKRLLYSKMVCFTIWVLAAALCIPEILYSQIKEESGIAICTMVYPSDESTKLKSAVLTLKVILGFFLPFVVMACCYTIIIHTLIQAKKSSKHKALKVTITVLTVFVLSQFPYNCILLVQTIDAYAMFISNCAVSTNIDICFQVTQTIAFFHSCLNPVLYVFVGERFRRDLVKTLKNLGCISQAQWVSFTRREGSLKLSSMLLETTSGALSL
As to the kind of experiment: Arrestin agonist mode. The format is cell-based. To be noted: read-out: RC50 (the source's name).

Assay [5] has as its target C5L2 (Homo sapiens, UniProt Q9P296). Nature of the assay: Arrestin agonist mode. Type of assay: cell-based. The settings on record: read-out: RC50 (the source's name).
Assay [6] concerns the target T3, C5aR1 (Homo sapiens, UniProt P21730).
T3 sequence (P21730 1-350): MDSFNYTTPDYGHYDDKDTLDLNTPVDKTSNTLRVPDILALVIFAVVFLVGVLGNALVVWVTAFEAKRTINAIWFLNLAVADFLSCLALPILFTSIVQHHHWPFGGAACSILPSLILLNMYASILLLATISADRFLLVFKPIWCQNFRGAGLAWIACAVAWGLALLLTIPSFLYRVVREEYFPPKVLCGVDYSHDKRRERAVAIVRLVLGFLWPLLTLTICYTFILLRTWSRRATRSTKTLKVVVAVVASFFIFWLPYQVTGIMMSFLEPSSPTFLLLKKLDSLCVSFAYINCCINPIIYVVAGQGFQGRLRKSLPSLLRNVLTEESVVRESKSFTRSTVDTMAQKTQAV
As to the kind of experiment: Arrestin agonist mode. The format is cell-based. To be noted: read-out: RC50 (the source's name).

In assay [7] the target is T4, relaxin-3 receptor (Rattus norvegicus, UniProt Q5Y987).
T4 construct: expressed a high level of the relaxin-3 receptor; from tissue; host or cells: rat brain, nucleus incertus (living animal)
T4 sequence (Q5Y987 1-469): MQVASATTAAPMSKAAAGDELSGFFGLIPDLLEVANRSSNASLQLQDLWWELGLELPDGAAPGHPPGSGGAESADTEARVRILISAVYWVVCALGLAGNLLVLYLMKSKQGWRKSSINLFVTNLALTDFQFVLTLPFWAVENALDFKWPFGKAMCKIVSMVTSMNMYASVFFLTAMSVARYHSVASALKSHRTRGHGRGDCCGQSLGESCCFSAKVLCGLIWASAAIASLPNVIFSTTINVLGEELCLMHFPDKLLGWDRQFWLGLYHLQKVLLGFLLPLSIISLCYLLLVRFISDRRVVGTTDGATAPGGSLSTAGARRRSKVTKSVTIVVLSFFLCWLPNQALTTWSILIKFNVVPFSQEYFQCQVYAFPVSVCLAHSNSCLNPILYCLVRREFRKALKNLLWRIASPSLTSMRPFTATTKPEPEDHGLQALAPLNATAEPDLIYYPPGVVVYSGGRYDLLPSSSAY
As to the kind of experiment: Central ODN antagonizes relaxin-3 induced hyperphagia. Type of assay: in vivo. To be noted: injection into the nucleus incertus; rats. Here is the method:
Rats were stereotaxically implanted with a bilateral guide cannula (26-ga, Plastics One) aimed at the nucleus incertus (guide cannula coordinates: ±0.5 lateral to midline, 9.5 mm […] to bregma, 5.8 mm ventral to skull; internal cannula aimed 7.8 mm ventral to skull). Recombinant human relaxin-3 was purchased (130-10, PreproTech Inc.) and ODN was synthesized by the Doyle laboratory. […] 24 h food intake was recorded in a Biodaq system (Research Diets, Inc).

Assay [8] concerns the target T5, RXFP3 (Homo sapiens, UniProt Q9NSD7).
T5 sequence (Q9NSD7 1-469): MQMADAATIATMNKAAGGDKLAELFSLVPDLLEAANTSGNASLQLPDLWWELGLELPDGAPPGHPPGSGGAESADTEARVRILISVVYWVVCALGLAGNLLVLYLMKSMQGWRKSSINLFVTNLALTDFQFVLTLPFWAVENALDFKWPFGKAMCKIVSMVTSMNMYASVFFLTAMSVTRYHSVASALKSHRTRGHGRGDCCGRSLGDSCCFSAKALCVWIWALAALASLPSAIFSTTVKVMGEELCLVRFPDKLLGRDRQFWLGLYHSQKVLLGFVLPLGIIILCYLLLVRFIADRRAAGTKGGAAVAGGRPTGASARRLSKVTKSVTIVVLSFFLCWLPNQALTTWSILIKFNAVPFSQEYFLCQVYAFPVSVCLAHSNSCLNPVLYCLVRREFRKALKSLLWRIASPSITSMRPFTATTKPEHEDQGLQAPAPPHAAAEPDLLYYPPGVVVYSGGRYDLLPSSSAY
Nature of the assay: Arrestin agonist mode. Type of assay: cell-based. To be noted: read-out: RC50 (the source's name).

A short description of assay [9]: Insulin tolerance test after 4th ventricle ODN. The settings on record: 4th ventricle pretreatment then ODN 200 μg/2 μL; chow rats. Type of assay: in vivo, rat.
Assay [10] has as its target PROKR2 (Homo sapiens, UniProt Q8NFJ6). As to the kind of experiment: Arrestin agonist mode. Type of assay: cell-based. The settings on record: read-out: RC50 (the source's name).
The target in assay [11] is PROKR1 (Homo sapiens, UniProt Q8TCW9). As to the kind of experiment: Arrestin agonist mode. Type of assay: cell-based. To be noted: read-out: RC50 (the source's name).
In assay [12] the target is CCR8 (Homo sapiens, UniProt P51685). As to the kind of experiment: Arrestin agonist mode. The format is cell-based. The settings on record: read-out: RC50 (the source's name).
Assay [13] addresses T6, CCR10 (Homo sapiens, UniProt P46092).
T6 sequence (P46092 1-362): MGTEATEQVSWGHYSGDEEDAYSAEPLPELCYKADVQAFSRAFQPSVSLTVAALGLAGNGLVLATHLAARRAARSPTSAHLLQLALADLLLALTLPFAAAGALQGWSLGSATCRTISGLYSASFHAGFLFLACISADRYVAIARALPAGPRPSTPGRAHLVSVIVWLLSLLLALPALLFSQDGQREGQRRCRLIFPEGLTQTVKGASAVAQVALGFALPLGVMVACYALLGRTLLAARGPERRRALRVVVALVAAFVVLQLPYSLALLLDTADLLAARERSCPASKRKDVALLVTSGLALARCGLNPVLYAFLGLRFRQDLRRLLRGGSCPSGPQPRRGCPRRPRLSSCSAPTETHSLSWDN
As to the kind of experiment: Arrestin agonist mode. The settings on record: read-out: RC50 (the source's name). The format is cell-based.

Where [14] appears, read: 4th ventricle, chow-maintained rats.

Entries after “also recorded” stand apart in the source; their conditions may differ.

Sequence of C5L2 (Q9P296 whole entry): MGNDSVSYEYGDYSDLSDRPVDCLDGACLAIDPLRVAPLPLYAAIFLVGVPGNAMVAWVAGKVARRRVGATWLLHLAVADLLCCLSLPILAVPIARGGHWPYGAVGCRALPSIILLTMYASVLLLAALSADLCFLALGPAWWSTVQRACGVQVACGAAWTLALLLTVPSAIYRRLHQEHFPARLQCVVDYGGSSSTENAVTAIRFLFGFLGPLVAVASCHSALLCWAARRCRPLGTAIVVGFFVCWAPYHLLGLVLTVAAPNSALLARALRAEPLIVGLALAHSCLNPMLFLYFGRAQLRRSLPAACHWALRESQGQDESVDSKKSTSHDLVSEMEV
Sequence of PROKR1 (Q8TCW9 whole entry): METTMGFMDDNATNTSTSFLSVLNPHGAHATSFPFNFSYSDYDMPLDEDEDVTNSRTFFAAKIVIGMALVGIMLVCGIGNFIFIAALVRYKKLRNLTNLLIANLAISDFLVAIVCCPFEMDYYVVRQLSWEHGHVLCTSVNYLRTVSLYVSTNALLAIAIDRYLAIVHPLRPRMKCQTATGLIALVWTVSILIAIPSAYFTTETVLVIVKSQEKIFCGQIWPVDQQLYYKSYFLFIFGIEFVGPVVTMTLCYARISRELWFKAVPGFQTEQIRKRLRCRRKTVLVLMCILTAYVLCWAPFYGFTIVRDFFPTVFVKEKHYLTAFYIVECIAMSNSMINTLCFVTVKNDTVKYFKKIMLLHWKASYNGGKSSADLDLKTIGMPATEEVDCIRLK
Sequence of PROKR2 (Q8NFJ6 whole entry): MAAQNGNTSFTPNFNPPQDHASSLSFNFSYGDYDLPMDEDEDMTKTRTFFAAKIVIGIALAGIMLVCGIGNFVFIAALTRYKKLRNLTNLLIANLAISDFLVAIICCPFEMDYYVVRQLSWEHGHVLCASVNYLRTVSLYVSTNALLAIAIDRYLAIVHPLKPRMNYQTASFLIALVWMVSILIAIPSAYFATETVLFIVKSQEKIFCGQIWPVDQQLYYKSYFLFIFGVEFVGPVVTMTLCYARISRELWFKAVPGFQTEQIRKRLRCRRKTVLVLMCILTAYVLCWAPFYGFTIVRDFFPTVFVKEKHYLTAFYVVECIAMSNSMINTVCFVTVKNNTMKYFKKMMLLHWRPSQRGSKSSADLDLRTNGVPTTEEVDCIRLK

B1: CCL22: control agonist (protein)
chain: GPYGANMEDSVCCRDYVRYRLPLRVVKHFYWTSDSCPRPGVVLLTFRDKEICADPRVPWVKMILNKLSQ
On to B1, for which, in assay [1], the EC50 worked out at 3.44 nM.

B2: recombinant DBI protein: Rat recombinant diazepam binding inhibitor (DBI) protein (LS-G136996, Lifespan Biosciences) (protein, UniProt P11030 2-87, looked up)
Acyl-CoA-binding protein: SQADFDKAAEEVKRLKTQPTDEEMLFIYSHFKQATVGDVNTDRPGLLDLKGKAKWDSWNKLKGTSKENAMKTYVEKVEELKKKYGI
For B2, the food intake entry in [2] (HFD-maintained rats) was “not high-fat diet (HFD) rats”; in assay [2] (HFD-maintained rats, listed as DBI), “did not decrease food intake in HFD-maintained rats”; in [2] (chow-maintained rats) it was “suppresses food intake in chow fed rats; also recorded: hypophagic in chow”; in [2] (chow-maintained rats, listed as DBI) it was “significantly reduced food intake at 4, 5, and 7-24 hours post injection; also recorded: decreased food intake at 4, 5, and 7-24 hours post injection”. Further, the number of bouts entry in assay [2] (setting [14]) was “decreased the number of bouts at 8 and 21 hours post injection”. In addition, the number of meals result in assay [2] (setting [14]) was “decreased the number of meals at 8-10 and 12-21 hours post injection”. Further, the “time spent in bouts” value in [2] (setting [14]) is “did not alter the time spent in bouts”. Also, the “time spent in meals” value in assay [2] (setting [14]) is given as “decreased the time spent in meals 8-24 hours post injection”. Also, the “24 h body weight change” value in assay [3] (HFD-maintained rats) and in assay [3] (chow-maintained rats) was “not significantly decreased” throughout.

B3: CCL25: control agonist (protein)
chain: QGVFEDCCLAYHYPIGWAVLRRAWTYRIQEVSGSCNLPAAIFYLPKRHRKVCGNPKSREVQRAMKLLDARNKVFAKLHHNTQTFQAGPHAVKKLSSGNSKLSSSKFSNPISSSKRNVSLLISANSGL
On to B3, for which the EC50 in assay [4] turned out to be 173 nM.

B4: Complement C5a: control agonist (protein)
chain: TLQKKIEEIAAKYKHSVVKKCCYDGACVNNDETCEQRAARISLGPRCIKAFTECCVVASQLRANISHKDMQLGR
As to B4, the EC50 in assay [5] is 1.57 nM; in assay [6], 1.38 nM.

B5: Relaxin-3: Recombinant human relaxin-3 (130-10, PreproTech); control agonist of RXFP3 (protein)
chain 1: RAAPYGVRLCGREFIRAVIFTCGGSRWRRSDILAHEAMGDTFPDADADEDSLAGELDEAMGSSEWLALTKSPQAFYRGRPSWQGTPGVLRGSRDVLAGLSSSCCKWGCSKSEISSLC
chain 2: B5 chain 1
With B5, the “24-hour food intake and body weight” value in assay [7] was “increased 24-hour food intake and body weight”. Moreover, in [8], the EC50 is 11.9 nM. In addition, in assay [9], the “effect of pretreatment on ODN improvement in insulin tolerance” value is recorded as “block hindbrain ODN improvements in insulin tolerance”.

B6: EG VEGF: control agonist (protein)
chain: AVITGACERDVQCGAGTCCAISLWLRGLRMCTPLGREGEECHPGSHKVPFFRKRKHHTCPCLPNLLCSRFPDGRYRCSMDLKNINF
B6: the EC50 in [10] amounted to 10.6 nM; in [11] it was 17.7 nM.

B7: CCL1: control agonist (protein)
chain: KSMQVPFSRCCFSFAEQEIPLRAILCYRNTSSICSNEGLIFKLKRGKEACALDTVGWVQRHRKMLRHCPSKRK
On to B7, for which the EC50 in assay [12] turned out to be 45.8 nM.

B8: CCL27: control agonist (protein)
chain: FLLPPSTACCTQLYRKPLSDKLLRKVIQVELQEADGDCHLQAFVLHLAQRSICIHPQNPSLSQWFEHQERKLHGTLPKLNFGMLRKMG
For B8, the EC50 in [13] was 26.3 nM.

The record behind these values is patent publication US20260184748A1, “COMPOSITIONS COMPRISING OCTADECANEUROPEPTIDES (ODN) AND SYNTHETIC DERIVATIVES THEREOF AND METHODS OF USE FOR MODULATION OF FOOD INTAKE, OBESITY, BODY WEIGHT, NAUSEA, AND EMESIS” (The Trustees of the University of Pennsylvania, priority 2022, published 2026).
